This is an account of results in paper PMC539286.

The assay concerns the target HTLV receptor (Glut1, the ubiquitous vertebrate glucose transporter) on human cells (human (endogenous in 293T)) (UniProt P11166).
UniProt P11166, sequence (P11166 whole entry): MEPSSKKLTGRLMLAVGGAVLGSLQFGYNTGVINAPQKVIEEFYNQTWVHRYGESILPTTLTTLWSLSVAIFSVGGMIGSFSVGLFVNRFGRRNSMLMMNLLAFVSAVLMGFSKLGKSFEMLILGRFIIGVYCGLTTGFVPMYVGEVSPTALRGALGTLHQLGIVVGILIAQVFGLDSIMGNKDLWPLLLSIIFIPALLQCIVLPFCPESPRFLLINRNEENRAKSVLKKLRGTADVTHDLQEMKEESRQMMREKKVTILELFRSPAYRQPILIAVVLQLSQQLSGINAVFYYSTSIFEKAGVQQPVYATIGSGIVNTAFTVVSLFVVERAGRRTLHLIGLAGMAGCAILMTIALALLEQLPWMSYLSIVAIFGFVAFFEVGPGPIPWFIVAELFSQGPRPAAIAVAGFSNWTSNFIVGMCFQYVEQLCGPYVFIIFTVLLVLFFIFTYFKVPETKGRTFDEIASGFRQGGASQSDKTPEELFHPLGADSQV

As for “H1(Y114A)SU, H1_(215)SU subdomain with Tyr114 mutated to Ala (from UniProt P23064 21-215) (Fc fusion)”, the HTLV Env-mediated cell fusion with target cells that express the mutant, percent of control fusion was 56 % of control and the MLV(HTLV) pseudotype infection of target cells that express the mutant, percent of control infection was 46 % of control.
